Data published in PMC9876794 (2022).

B1: B03 (antibody, V domains shown)
VH: EVQLQQSGPELVKPGASVKISCKASGYSFTGYYMNWVKQSPEKSLEWIGEINPSTGGATYNQKFKAKATLTVDKSSSTASMQLKSLTSEDSAVYYCARAAGDYWGQGTTLTVSS
VL: DIVLTQSPASLAVSLGQRATISCRASESVEYYGTSLMQWYQQKPGQPPKLLIYAASNVESGVPARFSGSGSGTDFSLNIHPVEEDDIAMYFCQQSRKVPWTFGGGTKLEIK
B2: B47 (antibody, V domains shown)
VH: EVQLQQSGPELVKPGASVKISCKASDYSFTGYYMNWVKQSPEKSLEWIGEINPSTGGTTYNQKFKAKATLTVDKSSSTAYMQLKSLTSEDSAVYYCARGSGAYWGQGTLVTVSA
VL: DIVLTQSPASLAVSLGQRATISCRASESVEYYGTSLMQWYQQKPGQPPKLLIYAASNVESGVPARFSGSGSGTDFSLNIHPVEEDDIAMYFCQQSRKVPYTFGGGTKLEIK
B3: B08 (antibody, V domains shown)
VH: EVQLQQSGPELVKPGASVKISCKASGYSFTGYYMNWVKQSPEKSLEWIGEINPSTGGTTYNQKFKAKATLTVDKSSSTAYMQLKSLTSEDSAVYYCARGGADVWGTGTTVTVSS
VL: DIVLTQSPASLAVSLGQRATISCRASESVEYYGTSLMQWYQQKPGQPPKLLIYAASNVESGVPARFSGSGSGTDFSLNIHPVEEDDIAMYFCQQSRKVPWTFGGGTKLEIK
B4: A49 (antibody, V domains shown)
VH: QVQLQQSGSELARPGASVNLSCKASGYTFTSYGVSWVKQRTGQGLEWIGDIYPRSGNSYYNEKFKGKATLTADKSSSTAYMELRSLTSEDSAVYFCAREVYGYEFDYWGQGTTLTVSS
VL: DIQMTQTTSSLSASLGDRVTISCRASQDISNYLNWYQQKPDGTVQLLIYYTSRLHSGVPSRFSGSGSGTDYSLTISNLEQEDIATYFCQQGNTLPRTFGGGTKLEIK
B5: B22 (antibody, V domains shown)
VH: EVKLEESGGGLVQPGGSMKLSCAASGFTFSDAWMDWVRQSPEKGLEWVAEIRNKANNHAIYYAESVKGRFTISRDDSKSSVYLQMNSLRAEDTGIYYCILFLTGHFDYWGQGTTLTVSS
VL: DIVMTQSQKFMSTSVGDRVSITCKASQNVRTAVVWYQEKPGQSPKTLIYLASNRHTGVPDRFTGSGSGTDFTLTISNVQSEDLADYFCLQHWNYPLTFGSGTKLEIK
B6: B21 (antibody, V domains shown)
VH: EVKLEESGGGLVQPGGSMKLSCAASGFTFSDAWMDWVRQSPEKGLEWVAEIRNKANNHATYYAESVKGRFTISRDDSKSSVYLQMNSLRAEDTGIYYCTLFLTGHFDYWGQGTTLTVSS
VL: DIVMTQSQKFMSTSVGDRVSITCKASQNVRTAVAWYQQKPGQSPKALIYLASNRHTGVPDRFTGSGSGTDFTLTISNVQSEDLADYFCLQHWNYPLTFGSGTKLEIK
B7: B02 (antibody, V domains shown)
VH: QVQLQQPGAELVKPGASVKVSCKASGYTFTSYWMHWVKQRPGQGLEWIGRIHPSDSDTNYNQKFKGKATLTVDKSSSTAYMQLSSLTSEDSAVYYCAMDWDVDYWGQGTTLTVSS
VL: QIVLTQSPALMSASPGEKVTMTCSASSSVSYMYWYQQKPRSSPKPWIYLTSNLASGVPARFSGSGSGTSYSLTISSMEAEDAATYYCQQWSSNPFTFGSGTKLEIK
B8: B07 (antibody, V domains shown)
VH: QVQLQQSGPELVKPGASVKISCKASGYVFSSSWMNWVKQRPGKGLEWIGRIYPGDGETNYNGKFKGKATLTADKSSSTAYMQLSSLTSEDSAVYFCARFDYGYDGHVWGTGTTVTVSS
VL: DIVMTQSQKFMSTSVGDRVSVTCKASQNVGTNVAWYQQKPGQSPKALIYSASYLYSGVPDRFTGSGSGTDFTLTISNVQSEDLAEYFCQQYNSYPLLTFGAGTKLELK
B9: B26 (antibody, V domains shown)
VH: QVQLQQPGAELVKPGASVKMSCKASGYTFTSYWITWVKQRPGQGLEWIGDIYPGSGSTNYNEKFKSKATLTVDTSSSTAYMQLSSLTSEDSAVYYCARDWDYGSSYWYFDVWGTGTTVTVSS
VL: DIKMTQSPSSMYASLGERVTITCKASQDIKSYLSWYQQKPWKSPKTLIYYATSLADGVPSRFSGSGSGQDYSLTISSLASDDTATYYCLQHGESPYTFGGGTKLEIK

target: SARS-CoV-2 spike RBD (WT) (Severe acute respiratory syndrome …, UniProt P0DTC2); assay: BLI

Binder | Kd [nM]
B1 | 52.6
B2 | 26.5
B3 | 87.2
B4 | 482
B5 | 269
B6 | 17.2
B7 | 580
B8 | 17700
B9 | 104
